# T1: mouse neurotensin type 3 receptor (solubilized) (mouse), Q6PHU5
# T1 chain: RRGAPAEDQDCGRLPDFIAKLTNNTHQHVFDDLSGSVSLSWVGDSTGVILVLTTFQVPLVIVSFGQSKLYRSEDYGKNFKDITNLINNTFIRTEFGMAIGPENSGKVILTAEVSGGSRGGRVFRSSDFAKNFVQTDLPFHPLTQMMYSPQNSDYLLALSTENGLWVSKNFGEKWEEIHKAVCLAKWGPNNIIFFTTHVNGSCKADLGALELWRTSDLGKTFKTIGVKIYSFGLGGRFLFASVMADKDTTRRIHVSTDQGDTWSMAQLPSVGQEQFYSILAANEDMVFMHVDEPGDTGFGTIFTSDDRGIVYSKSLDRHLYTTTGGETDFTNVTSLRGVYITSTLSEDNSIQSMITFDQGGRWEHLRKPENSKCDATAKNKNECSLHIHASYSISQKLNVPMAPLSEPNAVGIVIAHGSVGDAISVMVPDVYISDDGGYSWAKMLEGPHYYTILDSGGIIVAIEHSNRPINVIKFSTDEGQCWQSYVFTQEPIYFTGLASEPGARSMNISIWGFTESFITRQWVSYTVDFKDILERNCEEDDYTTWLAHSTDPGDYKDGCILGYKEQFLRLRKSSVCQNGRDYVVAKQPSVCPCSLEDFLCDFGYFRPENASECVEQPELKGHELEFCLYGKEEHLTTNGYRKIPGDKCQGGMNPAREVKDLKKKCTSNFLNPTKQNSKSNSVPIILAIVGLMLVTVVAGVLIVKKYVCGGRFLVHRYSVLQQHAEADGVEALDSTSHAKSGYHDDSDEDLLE
# T2: rat neurotensin type 1 receptor (rat), P20789
# T2 chain: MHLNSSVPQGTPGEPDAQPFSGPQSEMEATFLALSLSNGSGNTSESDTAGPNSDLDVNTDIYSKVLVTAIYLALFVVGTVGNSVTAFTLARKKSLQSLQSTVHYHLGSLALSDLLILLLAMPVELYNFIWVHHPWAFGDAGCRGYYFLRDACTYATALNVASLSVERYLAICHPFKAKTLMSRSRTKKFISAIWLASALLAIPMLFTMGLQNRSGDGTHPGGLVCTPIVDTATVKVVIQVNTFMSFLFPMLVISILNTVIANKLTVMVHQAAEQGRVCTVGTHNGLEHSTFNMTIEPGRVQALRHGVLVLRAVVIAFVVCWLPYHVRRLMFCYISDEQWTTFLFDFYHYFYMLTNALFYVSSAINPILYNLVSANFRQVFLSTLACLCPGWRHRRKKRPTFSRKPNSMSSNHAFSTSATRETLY
# T3: rat neurotensin type 2 receptor (rat), Q63384
# T3 chain: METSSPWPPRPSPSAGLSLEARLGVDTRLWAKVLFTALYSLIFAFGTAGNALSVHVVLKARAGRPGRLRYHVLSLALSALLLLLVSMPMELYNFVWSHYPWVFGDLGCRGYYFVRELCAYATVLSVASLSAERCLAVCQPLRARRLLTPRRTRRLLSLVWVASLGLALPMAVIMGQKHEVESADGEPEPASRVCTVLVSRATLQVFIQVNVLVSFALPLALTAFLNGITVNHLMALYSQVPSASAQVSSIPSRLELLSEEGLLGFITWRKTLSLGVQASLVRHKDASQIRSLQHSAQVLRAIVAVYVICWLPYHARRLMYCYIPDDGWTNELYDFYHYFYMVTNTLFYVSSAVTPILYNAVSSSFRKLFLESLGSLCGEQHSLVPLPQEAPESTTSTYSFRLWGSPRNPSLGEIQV
# B1: non-glycosylated Thr10-contulakin-G (peptide)
# peptide: QSEEGGSNATKKPYIL
# modifications: not checked
# B2: contulakin-G (synthetic glycosylated 16-amino acid peptide, Gal(beta1->3)GalNAc(alpha1->) on Thr10) (peptide)
# peptide: QSEEGGSNATKKPYIL
# modifications: not checked
# Assays:
# [1] = target: human neurotensin type 1 receptor (human), P30989; assay: competition radioligand binding, reference neurotensin1-13
# human neurotensin type 1 receptor (human), P30989, sequence (P30989 whole entry): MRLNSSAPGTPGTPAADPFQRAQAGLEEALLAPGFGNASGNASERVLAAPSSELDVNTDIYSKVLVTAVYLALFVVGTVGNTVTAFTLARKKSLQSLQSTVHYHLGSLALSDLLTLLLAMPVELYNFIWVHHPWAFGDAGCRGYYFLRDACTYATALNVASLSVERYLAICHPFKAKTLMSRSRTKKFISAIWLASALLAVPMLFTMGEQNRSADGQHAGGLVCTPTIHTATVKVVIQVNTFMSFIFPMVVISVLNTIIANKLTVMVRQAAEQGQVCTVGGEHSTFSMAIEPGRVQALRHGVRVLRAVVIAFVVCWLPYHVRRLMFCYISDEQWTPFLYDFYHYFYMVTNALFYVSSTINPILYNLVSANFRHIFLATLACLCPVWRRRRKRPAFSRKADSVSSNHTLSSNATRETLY
# [2] = target: T1, mouse neurotensin type 3 receptor …
# [3] = target: T2, rat neurotensin type 1 receptor (rat), …
# [4] = target: human neurotensin type 1 receptor (human), P30989
# [5] = target: T3, rat neurotensin type 2 receptor (rat), …
Binder,fold lower affinity than Neurotensin1-13 [1] [fold],IC50 [2] [nM],IC50 [3] [nM],IC50 [4] [nM],IC50 [5] [nM]
B1,10,71,79,23,170
B2,–,250,524,960,730

# Reference: US20040072758A1
